Results from patent US8026218 (UNIVERSITY OF ARIZONA, dated 2011).
Where two headings read alike, the source gives them in different places. Bridge positions count the residues as written; N and C are the ends. Square brackets hold non-standard residues; d marks the D form. Ends that are not written are not given here. * marks the point of attachment. Glc = O-glucosyl on Ser side chain (Ser(OGlu)/Ser(OGlc)); NH(3,5-(CF3)2-benzyl) = FC(F)(F)c1cc(CN*)cc(C(F)(F)F)c1; NH‑Bn(CF3)2 = C-terminal Bn(CF3)2 amide; Dmt = Cc1cc(O)cc(C)c1C[C@H](N)C(=O)O; Nle = CCCC[C@H](N)C(=O)O

Columns and labels:
human NK1 receptor [1] = biological target: T1, human NK1 receptor (human, UniProt P25103 1-407); assay: competition vs [3H]Substance P, hNK1 CHO cell membranes
T1 construct: whole, on cells; membrane preparations of the transfected cells were used; also called hNK1; human neurokinin-1 receptor
T1 sequence (P25103 whole entry): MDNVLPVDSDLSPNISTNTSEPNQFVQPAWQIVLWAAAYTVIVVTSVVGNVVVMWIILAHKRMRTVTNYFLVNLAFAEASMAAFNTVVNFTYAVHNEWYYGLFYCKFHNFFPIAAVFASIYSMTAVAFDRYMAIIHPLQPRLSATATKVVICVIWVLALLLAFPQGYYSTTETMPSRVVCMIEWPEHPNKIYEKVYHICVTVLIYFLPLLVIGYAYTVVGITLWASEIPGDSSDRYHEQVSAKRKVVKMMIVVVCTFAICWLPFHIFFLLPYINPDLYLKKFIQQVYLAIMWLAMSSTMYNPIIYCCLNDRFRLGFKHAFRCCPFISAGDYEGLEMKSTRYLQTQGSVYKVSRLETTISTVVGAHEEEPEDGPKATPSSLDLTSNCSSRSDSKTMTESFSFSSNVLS

rat µ opioid receptor [2] = biological target: T2, rat µ opioid receptor (rat, UniProt P33535 1-398); assay: ratio of the Ki at rMOR to the Ki at hDOR
T2 construct: whole, on cells; membrane preparations of the transfected cells were used; also called rMOR; MOR
T2 sequence (P33535 whole entry): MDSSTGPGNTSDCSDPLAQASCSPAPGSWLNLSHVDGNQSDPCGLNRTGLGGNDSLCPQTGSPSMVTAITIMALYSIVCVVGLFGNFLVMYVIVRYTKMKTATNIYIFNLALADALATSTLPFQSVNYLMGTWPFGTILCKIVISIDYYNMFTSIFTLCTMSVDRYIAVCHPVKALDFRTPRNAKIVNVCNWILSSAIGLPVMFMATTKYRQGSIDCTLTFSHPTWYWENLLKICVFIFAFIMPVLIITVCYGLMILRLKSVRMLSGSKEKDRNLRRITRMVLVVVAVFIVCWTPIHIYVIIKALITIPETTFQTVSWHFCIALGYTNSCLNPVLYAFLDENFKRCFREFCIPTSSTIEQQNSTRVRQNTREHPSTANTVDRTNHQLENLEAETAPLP

human δ opioid receptor [3] = biological target: T3, human δ opioid receptor (human, UniProt P41143 1-372); assay: competition vs [3H]DPDPE, hDOR cell membranes
T3 construct: whole, on cells; membrane preparations of the transfected cells were used; also called hDOR; DOR
T3 sequence (P41143 whole entry, stated change not applied): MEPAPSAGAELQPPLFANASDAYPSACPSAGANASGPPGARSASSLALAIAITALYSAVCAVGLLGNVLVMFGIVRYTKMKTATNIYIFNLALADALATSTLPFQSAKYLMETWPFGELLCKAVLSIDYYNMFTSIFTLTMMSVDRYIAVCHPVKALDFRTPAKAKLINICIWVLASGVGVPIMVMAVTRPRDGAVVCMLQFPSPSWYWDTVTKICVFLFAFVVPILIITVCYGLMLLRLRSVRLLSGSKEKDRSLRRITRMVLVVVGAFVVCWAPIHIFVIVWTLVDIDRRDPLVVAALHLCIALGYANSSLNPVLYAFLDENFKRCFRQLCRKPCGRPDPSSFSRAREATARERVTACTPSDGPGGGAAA

rat µ opioid receptor [4] = biological target: T2, rat µ opioid receptor; assay: cell-based or functional assay
human δ opioid receptor [5] = biological target: T3, human δ opioid receptor; assay: cell-based or functional assay
guinea pig NK1 receptor [6] = biological target: T4, guinea pig NK1 receptor (guinea pig, UniProt P30547 1-407); assay: cell-based or functional assay
T4 sequence (P30547 whole entry): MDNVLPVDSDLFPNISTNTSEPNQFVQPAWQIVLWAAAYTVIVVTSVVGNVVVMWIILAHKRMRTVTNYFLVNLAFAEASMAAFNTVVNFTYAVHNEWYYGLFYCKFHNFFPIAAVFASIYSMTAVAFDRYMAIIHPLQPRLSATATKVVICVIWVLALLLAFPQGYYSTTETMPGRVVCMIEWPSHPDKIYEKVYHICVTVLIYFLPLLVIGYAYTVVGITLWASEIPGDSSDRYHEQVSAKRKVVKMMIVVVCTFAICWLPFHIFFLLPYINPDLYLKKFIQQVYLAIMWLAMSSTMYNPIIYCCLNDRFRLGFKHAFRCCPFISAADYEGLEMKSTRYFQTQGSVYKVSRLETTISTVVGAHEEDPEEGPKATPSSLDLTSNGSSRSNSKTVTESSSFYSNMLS

rat NK1 receptor [7] = biological target: T5, rat NK1 receptor (rat, UniProt P14600 1-407); assay: competition vs [3H]Substance P, rNK1 CHO cell membranes
T5 construct: whole, on cells; membrane preparations of the transfected cells were used; also called rNK1; rNK-1
T5 sequence (P14600 whole entry): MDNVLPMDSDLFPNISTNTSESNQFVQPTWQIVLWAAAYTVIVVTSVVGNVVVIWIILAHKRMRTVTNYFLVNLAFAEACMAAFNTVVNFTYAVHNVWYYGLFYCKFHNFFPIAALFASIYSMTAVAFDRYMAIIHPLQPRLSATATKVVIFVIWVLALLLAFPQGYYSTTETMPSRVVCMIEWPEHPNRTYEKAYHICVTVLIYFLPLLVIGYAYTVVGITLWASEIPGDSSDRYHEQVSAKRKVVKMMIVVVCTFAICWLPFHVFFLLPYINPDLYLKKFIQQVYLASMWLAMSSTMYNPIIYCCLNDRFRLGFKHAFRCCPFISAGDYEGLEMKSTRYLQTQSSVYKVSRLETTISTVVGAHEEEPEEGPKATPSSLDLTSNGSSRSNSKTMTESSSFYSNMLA

rat µ opioid receptor [8] = biological target: T2, rat µ opioid receptor; assay: competition vs [3H]DAMGO, rMOR cell membranes
rat NK1 receptor [9] = biological target: T6, rat NK1 receptor (rat, UniProt P14600 1-407); assay: radioligand competition vs [3H]substance P, membranes of rNK1 CHO cells
T6 construct: whole, on cells; Used as membrane preparations of transfected CHO cells; also called rNK1; rat neurokinin-1 receptor
T6 sequence (P14600 whole entry): as above

human NK1 receptor [10] = biological target: T7, human NK1 receptor (human, UniProt P25103 1-407); assay: radioligand competition vs [3H]substance P, membranes of hNK1 CHO cells
T7 construct: whole, on cells; Used as membrane preparations of transfected CHO cells; also called hNK1; human neurokinin-1 receptor
T7 sequence (P25103 whole entry): as the sequence (P25103 whole entry) above

[11] = biological target: µ opioid receptor of the guinea pig isolated ileum (guinea pig, UniProt P97266 1-98); assay: cell-based or functional assay
Target sequence in this assay (P97266 whole entry): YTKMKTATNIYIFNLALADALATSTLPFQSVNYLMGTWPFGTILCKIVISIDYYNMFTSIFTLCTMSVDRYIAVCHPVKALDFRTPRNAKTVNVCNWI

guinea pig NK1 receptor [12] = biological target: guinea pig NK1 receptor (guinea pig, UniProt P30547 1-407); assay: cell-based or functional assay; remark: listed apart in the source
Target sequence in this assay (P30547 whole entry): as the sequence (P30547 whole entry) above

guinea pig NK1 receptor [13] = biological target: T4, guinea pig NK1 receptor; assay: cell-based or functional assay; remark: listed apart in the source
human δ opioid receptor [14] = biological target: T3, human δ opioid receptor; assay: cell-based or functional assay; remark: listed apart in the source
[15] = biological target: T8, µ opioid receptor of the guinea pig isolated ileum (guinea pig, UniProt P97266 1-98); assay: cell-based or functional assay; remark: listed apart in the source
T8 sequence (P97266 whole entry): as the sequence (P97266 whole entry) above

human NK1 receptor [16] = biological target: T1, human NK1 receptor; assay: competition vs [3H]Substance P, hNK1 CHO cell membranes; remark: listed apart in the source
human δ opioid receptor [17] = biological target: T3, human δ opioid receptor; assay: competition vs [3H]DPDPE, hDOR cell membranes; remark: listed apart in the source
rat µ opioid receptor [18] = biological target: T2, rat µ opioid receptor; assay: cell-based or functional assay; remark: listed apart in the source
human NK1 receptor [19] = biological target: T1, human NK1 receptor; assay: competition vs [3H]Substance P, hNK1 CHO cell membranes; remark: listed apart in the source
rat µ opioid receptor [20] = biological target: T2, rat µ opioid receptor; assay: competition vs [3H]DAMGO, rMOR cell membranes; remark: listed apart in the source
rat µ opioid receptor [21] = biological target: T2, rat µ opioid receptor; assay: cell-based or functional assay; remark: listed apart in the source
rat NK1 receptor [22] = biological target: T5, rat NK1 receptor; assay: competition vs [3H]Substance P, rNK1 CHO cell membranes; remark: listed apart in the source
human δ opioid receptor [23] = biological target: T3, human δ opioid receptor; assay: cell-based or functional assay; remark: listed apart in the source
[24] = biological target: T8, µ opioid receptor of the guinea pig …; assay: cell-based or functional assay; remark: listed apart in the source
rat NK1 receptor [25] = biological target: T5, rat NK1 receptor; assay: competition vs [3H]Substance P, rNK1 CHO cell membranes; remark: listed apart in the source
rat µ opioid receptor [26] = biological target: T2, rat µ opioid receptor; assay: competition vs [3H]DAMGO, rMOR cell membranes; remark: listed apart in the source

B1: Tyr[DCysGlyPheNleProDCys]TrpNHBn(CF3)2 (peptide)
peptide: Y[dC]GF[Nle]P[dC]W-{NH(3,5-(CF3)2-benzyl)}
modifications: disulfide 2-7
notes: cyclic; also called TY038; [D-Cys2, D-Cys7]TY027
Ki (human NK1 receptor [1]): 0.25 nM
LogIC50 (human NK1 receptor [1]): -9.3
Ki(µ)/Ki(δ) (rat µ opioid receptor [2]): 2.9
Ki (human δ opioid receptor [3]): 56 nM
LogIC50 (human δ opioid receptor [3]): -6.9
[35S]GTPγS binding EC50 (rat µ opioid receptor [4]): 22 nM
[35S]GTPγS binding Emax (rat µ opioid receptor [4]): 12%
[35S]GTPγS binding LogEC50 (rat µ opioid receptor [4]): -7.7
[35S]GTPγS binding EC50 (human δ opioid receptor [5]): 51 nM
[35S]GTPγS binding Emax (human δ opioid receptor [5]): 87%
[35S]GTPγS binding LogEC50 (human δ opioid receptor [5]): -7.3
GPI Substance P antagonist Ke (guinea pig NK1 receptor [6]): 12 nM
Ki (rat NK1 receptor [7]): 7.1 nM
LogIC50 (rat NK1 receptor [7]): -7.7
Ki (rat µ opioid receptor [8]): 160 nM
LogIC50 (rat µ opioid receptor [8]): -8.8

Y[dA]GF[Nle]PLS(Glc)W-{NH‑Bn(CF3)2} [TyrDAlaGlyPheNleProLeuSer(OGlu)TrpNHBn(CF3)2 (TY055)]
Ki (rat NK1 receptor [9]): 33.9 nM
Ki (human NK1 receptor [10]): 0.052 nM
GPI/LMMP opioid(mu) agonist IC50 [11]: 670 nM
GPI/LMMP SP antagonist Ke (guinea pig NK1 receptor [12]): 8.4 nM

YAGFXPLW (D-Ala at 2; Nle at 5 (written X); C-terminal NH-3,5-Bzl(CF3)2 amide, also called TY045) [TyrDAlaGlyPheNleProLeuTrpNHBn(CF3)2]
GPI/LMMP SP antagonist Ke (guinea pig NK1 receptor [13]): 40.8 nM
GTP binding EC50 (human δ opioid receptor [14]): 5 nM
GTP binding Emax (human δ opioid receptor [14]): 125%
GPI/LMMP IC50 [15]: 463 nM
Ki (human NK1 receptor [16]): 0.0028 nM
Ki (human δ opioid receptor [17]): 1 nM

[Dmt][dA]GF[Nle]PS(Glc)W-{NH(3,5-(CF3)2-benzyl)} (also called TY056) [DmtDAlaGlyPheNleProSer(OGlu)TrpNHBn(CF3)2]
GTP binding EC50 (rat µ opioid receptor [18]): 44.9 nM
GTP binding Emax (rat µ opioid receptor [18]): 66%
Ki (human NK1 receptor [19]): 0.0017 nM
Ki (rat µ opioid receptor [20]): 1.9 nM

Y[dA]GF[Nle]PS(Glc)W-{NH(3,5-(CF3)2-benzyl)} (also called TY041) [TyrDAlaGlyPheNleProSer(OGlu)TrpNHBn(CF3)2]
GTP binding EC50 (rat µ opioid receptor [21]): 18 nM
GTP binding Emax (rat µ opioid receptor [21]): 42%
GPI/LMMP SP antagonist Ke (guinea pig NK1 receptor [13]): 1.8 nM
GTP binding EC50 (human δ opioid receptor [14]): 7.9 nM
GTP binding Emax (human δ opioid receptor [14]): 62%
GPI/LMMP IC50 [15]: 517 nM
Ki (rat NK1 receptor [22]): 14 nM
GTP binding EC50 (rat µ opioid receptor [18]): 18 nM
GTP binding Emax (rat µ opioid receptor [18]): 42%
GTP binding EC50 (human δ opioid receptor [23]): 7.9 nM
GTP binding Emax (human δ opioid receptor [23]): 62%
GPI/LMMP IC50 [24]: 517 nM
Ki (rat NK1 receptor [25]): 14 nM
Ki (rat µ opioid receptor [20]): 8 nM
Ki (rat µ opioid receptor [26]): 8 nM
